# Results: paper PMC4188699
# Several values for one entry are separate records, joined by “and”; a condition that tells them apart may be missing. Equal entries are not always repeated.
# Columns and labels:
# Q9H3Z4 = test: SDS-PAGE of SDS-resistant oligomers; settings: other: SDS-PAGE of SDS-resistant oligomers
# [1] = target: T1, human CSPα L115R, purified from E. coli (human), Q9H3Z4; test: SDS-PAGE of SDS-resistant oligomers; settings: remark: other sources report otherwise
# T1 chain: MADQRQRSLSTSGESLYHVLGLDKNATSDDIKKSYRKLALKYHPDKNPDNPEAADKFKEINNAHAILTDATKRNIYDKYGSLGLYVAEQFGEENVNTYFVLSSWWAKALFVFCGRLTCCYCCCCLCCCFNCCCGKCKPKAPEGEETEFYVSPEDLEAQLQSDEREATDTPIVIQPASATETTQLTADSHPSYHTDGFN
Binder,"HMW oligomers, fold versus WT (Q9H3Z4)",stoichiometry N [1]
"human CSPα L116Δ, purified from E. coli (protein) MADQRQRSLSTSGESLYHVLGLDKNATSDDIKKSYRKLALKYHPDKNPDNPEAADKFKEINNAHAILTDATKRNIYDKYGSLGLYVAEQFGEENVNTYFVLSSWWAKALFVFCGLTCCYCCCCLCCCFNCCCGKCKPKAPEGEETEFYVSPEDLEAQLQSDEREATDTPIVIQPASATETTQLTADSHPSYHTDGFN",13.2 ± 3.9 fold versus WT,
"human CSPα L115R, purified from E. coli, Q9H3Z4 1-198 (natural protein) MADQRQRSLSTSGESLYHVLGLDKNATSDDIKKSYRKLALKYHPDKNPDNPEAADKFKEINNAHAILTDATKRNIYDKYGSLGLYVAEQFGEENVNTYFVLSSWWAKALFVFCGRLTCCYCCCCLCCCFNCCCGKCKPKAPEGEETEFYVSPEDLEAQLQSDEREATDTPIVIQPASATETTQLTADSHPSYHTDGFN",,2 and 4
"human CSPα L115R, purified from E. coli (protein) MADQRQRSLSTSGESLYHVLGLDKNATSDDIKKSYRKLALKYHPDKNPDNPEAADKFKEINNAHAILTDATKRNIYDKYGSLGLYVAEQFGEENVNTYFVLSSWWAKALFVFCGRLTCCYCCCCLCCCFNCCCGKCKPKAPEGEETEFYVSPEDLEAQLQSDEREATDTPIVIQPASATETTQLTADSHPSYHTDGFN",58.9 ± 5.9 fold versus WT,
